In patent publication US20190194323A1 (ALLAKOS, published 2019):

target: Siglec-7 on primary human cells (NK cells, CD8+ tumor-infiltrating T cells) (human, UniProt Q9Y286 19-467); assay: cell-based or functional assay
Sequence (Q9Y286 19-467 limits assumed): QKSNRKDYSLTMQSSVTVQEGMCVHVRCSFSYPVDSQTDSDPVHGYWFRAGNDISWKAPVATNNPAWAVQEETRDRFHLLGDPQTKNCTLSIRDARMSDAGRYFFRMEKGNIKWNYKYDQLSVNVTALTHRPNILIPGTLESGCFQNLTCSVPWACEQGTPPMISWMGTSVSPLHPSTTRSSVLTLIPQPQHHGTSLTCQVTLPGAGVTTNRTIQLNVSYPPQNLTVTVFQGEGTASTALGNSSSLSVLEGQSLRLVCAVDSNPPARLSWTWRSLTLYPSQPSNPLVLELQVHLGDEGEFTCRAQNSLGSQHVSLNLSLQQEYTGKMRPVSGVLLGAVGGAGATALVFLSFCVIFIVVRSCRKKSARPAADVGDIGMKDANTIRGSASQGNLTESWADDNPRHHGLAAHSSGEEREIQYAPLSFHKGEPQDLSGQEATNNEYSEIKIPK

Row | IC50 of Siglec-7 internalization on NK cells (24 h, PBMC; remaining surface Siglec-7 stained with 4B12-AF647) | Binder
1 | 0.0149 nM | monoclonal antibody 8A2 (antibody, V domains shown) VH: QVQLKESGPGLVAPSQSLSITCTVSGFSLTTYGVDWVRQFPGKGLEWLGVIWGGGNTNYNSALMSRLSISKDTSKSQVFLKMNSLQTDDTAMYYCAKHKGTSHAMEYWGQGTSVTVSS VL: QIVLTQSPAIMSASPGEKVTMTCSASSRVIFMYWYQQKPGSSPRLLIYDTSNLASGVPVRFSGGGSGTSYSLTISRMEAEDAATYYCQQWSSYPPTFGAGTKLELK
2 | 0.0206 nM | 5D1 (antibody) heavy chain variable region: QVQLQQPGAELVKPGASVKMSCKASGYTFTSSWITWVKDRPGQGLEWIGDIYPGNGNTNYNEKFKSKATLTVDTSSNTVYMQLSSLTSEDSAVHYCARDGRGYFDYWGPGTTLTVSS light chain variable region: DIQMTQTTSSLSASLGDRVTIICRASQDISNFLNWYQQKPDGTVKLLMYDTSILQSGVPSRFSGRGSGADYSLTINNLEQEDLATYFCQQGKTLPYTFGGGTKLEIK
3 | 0.0175 nM | 13D2 (antibody, V domains shown) VH: DVQLQESGPGMVKPSQSLSLTCTVTGYSITSDYDWHWIRHFPGNKLEWMGYISYSGSTKYNPSLKSRISITHDTSKNHFFLKLNSVTAEDTATYYCARENDFPGFWYFDVWGTGTTVTVSS VL: DIVMSQSPSSQVVSVGEKVTVTCTSSQSLLYGTNQKNYLAWYQQKPGQSPKLLIYWASIRESGVPDRFTGSGSGTDFTLTISSVKAEDLAVYYCQQYYSYPLTFGAGTKLELK

target: T1, Siglec-7-ECD (human, UniProt Q9Y286 19-353); assay: monovalent Fab; bio-layer interferometry (ForteBio) per Methods
T1 construct: also called p75; AIRM
T1 sequence (Q9Y286 19-353 limits assumed): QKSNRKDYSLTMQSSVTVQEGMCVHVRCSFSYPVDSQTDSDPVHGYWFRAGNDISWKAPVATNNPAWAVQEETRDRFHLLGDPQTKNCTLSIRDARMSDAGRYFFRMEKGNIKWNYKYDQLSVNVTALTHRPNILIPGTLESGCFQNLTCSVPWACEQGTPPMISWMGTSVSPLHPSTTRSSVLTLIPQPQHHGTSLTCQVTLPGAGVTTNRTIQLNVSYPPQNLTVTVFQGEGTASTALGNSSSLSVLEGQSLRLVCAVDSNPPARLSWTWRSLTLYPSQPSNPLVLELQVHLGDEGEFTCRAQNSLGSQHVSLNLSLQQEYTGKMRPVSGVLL

Row | Binder | Kd
4 | humanized 16H11-derived Fab, VH AK449-6 / VL AK418-2 (Fab, V domains shown, Measured as monovalent Fab; also called No. 30; VH449-6 and VL418-2) VH: QVQLVQSGAEVKKPGSSVKVSCKGSGYDFSNFWMNWVRQAPGQGLEWMGGIYPGDGEIKYNQKFQGRVTITADESTSTAYMELSSLRSEDTAVYYCARDDYLRAMDIWGQGTMVTVSS VL: DIQMTQSPSSLSASVGDRVTITCRASGNIHNYLAWYQQKPGKAPKFLLYSAKRLESGVPSRFSGSGSGTDYTLTISSLQPEDFATYYCQHFWSSPYTFGGGTKVEIK | < 0.1 nM
5 | humanized 16H11-derived Fab, VH AK463-2 / VL AK448-3 (Fab, V domains shown, Measured as monovalent Fab; also called No. 36; Vh463-2 and VL448-3) VH: QVQLVQSGAEVKKPGSSVKVSCKASGYDFSNFWMNWVRQAPGQGLEWMGQIYPGDGEIKYNQKFQGRVTITADESTSTAYMELSSLRSEDTAVYYCARDDYLRAMDYWGQGTLVTVSS VL: DIQMTQSPSSLSASVGDRVTITCRASQNIHNYLAWYQQKPGKAPKFLLYSAKRLESGVPSRFSGSGSGTDYTLTISSLQPEDFATYYCQHFWSSPYTFGQGTKLEIK | < 0.075 nM
6 | humanized 16H11-derived Fab, VH AK465-17 / VL AK419-2 (Fab, V domains shown, Measured as monovalent Fab; also called No. 40) VH: QVQLVQSGAEVKKPGSSVKVSCKASGYDFSNFWMNWVRQAPGQGLEWMGQIYPGDGEIKYAQKFQGRVTITADESTSTAYMELSSLRSEDTAVYYCARDDYLRAMDIWGQGTMVTVSS VL: DIQMTQSPSSLSASVGDRVTITCRASQNIHNYLAWYQQKPGKAPKFLLYSAKRLESGVPSRFSGSGSGTDYTLTISSLQPEDFATYYCQHFWSSPYTFGGGTKVEIK | 0.15 to 0.25 nM
7 | humanized 16H11-derived Fab, VH AK463-2 / VL AK418-2 (Fab, V domains shown, Measured as monovalent Fab; also called No. 35; VH463-2 and VL418-2) VH: QVQLVQSGAEVKKPGSSVKVSCKASGYDFSNFWMNWVRQAPGQGLEWMGQIYPGDGEIKYNQKFQGRVTITADESTSTAYMELSSLRSEDTAVYYCARDDYLRAMDYWGQGTLVTVSS VL: DIQMTQSPSSLSASVGDRVTITCRASGNIHNYLAWYQQKPGKAPKFLLYSAKRLESGVPSRFSGSGSGTDYTLTISSLQPEDFATYYCQHFWSSPYTFGGGTKVEIK | < 0.075 nM
8 | humanized 16H11-derived Fab, VH AK449-6 / VL AK448-3 (Fab, V domains shown, Measured as monovalent Fab; also called No. 31) VH: QVQLVQSGAEVKKPGSSVKVSCKGSGYDFSNFWMNWVRQAPGQGLEWMGGIYPGDGEIKYNQKFQGRVTITADESTSTAYMELSSLRSEDTAVYYCARDDYLRAMDIWGQGTMVTVSS VL: DIQMTQSPSSLSASVGDRVTITCRASQNIHNYLAWYQQKPGKAPKFLLYSAKRLESGVPSRFSGSGSGTDYTLTISSLQPEDFATYYCQHFWSSPYTFGQGTKLEIK | 0.05 to 0.1 nM
9 | humanized 16H11-derived Fab, VH AK463-2 / VL AK419-2 (Fab, V domains shown, Measured as monovalent Fab; also called No. 38) VH: QVQLVQSGAEVKKPGSSVKVSCKASGYDFSNFWMNWVRQAPGQGLEWMGQIYPGDGEIKYNQKFQGRVTITADESTSTAYMELSSLRSEDTAVYYCARDDYLRAMDYWGQGTLVTVSS VL: DIQMTQSPSSLSASVGDRVTITCRASQNIHNYLAWYQQKPGKAPKFLLYSAKRLESGVPSRFSGSGSGTDYTLTISSLQPEDFATYYCQHFWSSPYTFGGGTKVEIK | > 0.5 nM
10 | humanized 16H11-derived Fab, VH AK465-17 / VL AK418-2 (Fab, V domains shown, Measured as monovalent Fab; also called No. 39; FH465-17 and VL418-2) VH: QVQLVQSGAEVKKPGSSVKVSCKASGYDFSNFWMNWVRQAPGQGLEWMGQIYPGDGEIKYAQKFQGRVTITADESTSTAYMELSSLRSEDTAVYYCARDDYLRAMDIWGQGTMVTVSS VL: DIQMTQSPSSLSASVGDRVTITCRASGNIHNYLAWYQQKPGKAPKFLLYSAKRLESGVPSRFSGSGSGTDYTLTISSLQPEDFATYYCQHFWSSPYTFGGGTKVEIK | < 0.075 nM

Continued, values first:

Row | Kd | Binder
11 | > 0.5 nM | humanized 16H11-derived Fab, VH AK485-5 / VL AK418-2 (Fab, V domains shown, Measured as monovalent Fab; also called No. 45) VH: QVQLVQSGAEVKKPGSSVKVSCKASGYDFSNFAMNWVRQAPGQGLEWMGQIYPGDGEIKYNQKFQGRVTITADESTSTAYMELSSLRSEDTAVYYCARDDYLRAMDIWGQGTMVTVSS VL: DIQMTQSPSSLSASVGDRVTITCRASGNIHNYLAWYQQKPGKAPKFLLYSAKRLESGVPSRFSGSGSGTDYTLTISSLQPEDFATYYCQHFWSSPYTFGGGTKVEIK
12 | < 0.1 nM | humanized 16H11-derived Fab, VH AK484-6 / VL AK418-2 (Fab, V domains shown, Measured as monovalent Fab; also called No. 42; VH484-6 and VL418-2) VH: QVQLVQSGAEVKKPGSSVKVSCKASGYDFSNYWMNWVRQAPGQGLEWMGQIYPGDGEIKYNQKFQGRVTITADESTSTAYMELSSLRSEDTAVYYCARDDYLRAMDIWGQGTMVTVSS VL: DIQMTQSPSSLSASVGDRVTITCRASGNIHNYLAWYQQKPGKAPKFLLYSAKRLESGVPSRFSGSGSGTDYTLTISSLQPEDFATYYCQHFWSSPYTFGGGTKVEIK
13 | < 0.075 nM | humanized 16H11-derived Fab, VH AK484-6 / VL AK448-3 (Fab, V domains shown, Measured as monovalent Fab; also called No. 43; VH484-6 and VL448-3) VH: QVQLVQSGAEVKKPGSSVKVSCKASGYDFSNYWMNWVRQAPGQGLEWMGQIYPGDGEIKYNQKFQGRVTITADESTSTAYMELSSLRSEDTAVYYCARDDYLRAMDIWGQGTMVTVSS VL: DIQMTQSPSSLSASVGDRVTITCRASQNIHNYLAWYQQKPGKAPKFLLYSAKRLESGVPSRFSGSGSGTDYTLTISSLQPEDFATYYCQHFWSSPYTFGQGTKLEIK
14 | < 0.075 nM | humanized 16H11-derived Fab, VH AK484-7 / VL AK448-3 (Fab, V domains shown, Measured as monovalent Fab; also called No. 44; VH484-7 and VL448-3) VH: QVQLVQSGAEVKKPGSSVKVSCKASGYDFSNYWMNWVRQAPGQGLEWMGQIYPGDGEIKYNQKFQGRVTITADESTSTAYMELSSLRSEDTAVYYCARDDYLRAMDYWGQGTLVTVSS VL: DIQMTQSPSSLSASVGDRVTITCRASQNIHNYLAWYQQKPGKAPKFLLYSAKRLESGVPSRFSGSGSGTDYTLTISSLQPEDFATYYCQHFWSSPYTFGQGTKLEIK
15 | > 0.5 nM | humanized 16H11-derived Fab, VH AK485-5 / VL AK448-3 (Fab, V domains shown, Measured as monovalent Fab; also called No. 46) VH: QVQLVQSGAEVKKPGSSVKVSCKASGYDFSNFAMNWVRQAPGQGLEWMGQIYPGDGEIKYNQKFQGRVTITADESTSTAYMELSSLRSEDTAVYYCARDDYLRAMDIWGQGTMVTVSS VL: DIQMTQSPSSLSASVGDRVTITCRASQNIHNYLAWYQQKPGKAPKFLLYSAKRLESGVPSRFSGSGSGTDYTLTISSLQPEDFATYYCQHFWSSPYTFGQGTKLEIK
16 | > 0.5 nM | humanized 16H11-derived Fab, VH AK485-4 / VL AK448-3 (Fab, V domains shown, Measured as monovalent Fab; also called No. 47) VH: QVQLVQSGAEVKKPGSSVKVSCKASGYDFSNFAMNWVRQAPGQGLEWMGQIYPGDGEIKYNQKFQGRVTITADESTSTAYMELSSLRSEDTAVYYCARDDYLRAMDYWGQGTLVTVSS VL: DIQMTQSPSSLSASVGDRVTITCRASQNIHNYLAWYQQKPGKAPKFLLYSAKRLESGVPSRFSGSGSGTDYTLTISSLQPEDFATYYCQHFWSSPYTFGQGTKLEIK
17 | 0.1 to 0.15 nM | humanized 16H11-derived Fab, VH AK465-17 / VL AK448-3 (Fab, V domains shown, Measured as monovalent Fab; also called No. 41) VH: QVQLVQSGAEVKKPGSSVKVSCKASGYDFSNFWMNWVRQAPGQGLEWMGQIYPGDGEIKYAQKFQGRVTITADESTSTAYMELSSLRSEDTAVYYCARDDYLRAMDIWGQGTMVTVSS VL: DIQMTQSPSSLSASVGDRVTITCRASQNIHNYLAWYQQKPGKAPKFLLYSAKRLESGVPSRFSGSGSGTDYTLTISSLQPEDFATYYCQHFWSSPYTFGQGTKLEIK

target: T1, Siglec-7-ECD; assay: bio-layer interferometry (ForteBio): antibody captured on the sensor, Siglec-7-ECD as analyte, 1:1 global fit
Method: A panel of antibodies was evaluated for binding to Siglec-7. The results identified anti-Siglec-7 antibodies that have improved KD values compared to commercially available anti-Siglec-7 antibodies (FIG. 7).
Antibody binding analysis was carried out by bio-layer interferometry (ForteBio). […] Antibodies were captured on anti-mouse kinetic sensors at 0.5 ug/mL; Siglec-7-ECD was used as analyte and diluted in assay buffer from 50 nM to 1.56 nM with 2× dilutions. Two-minute associations were conducted, followed by 10-minute dissociations. Results were determined relative to a control empty reference AHC sensor, and analyzed using ForteBio analysis software with 1:1 global fit parameters.

Row | Kd | Binder
18 | 0.001 nM | monoclonal antibody 8A2 (antibody, V domains shown) VH: QVQLKESGPGLVAPSQSLSITCTVSGFSLTTYGVDWVRQFPGKGLEWLGVIWGGGNTNYNSALMSRLSISKDTSKSQVFLKMNSLQTDDTAMYYCAKHKGTSHAMEYWGQGTSVTVSS VL: QIVLTQSPAIMSASPGEKVTMTCSASSRVIFMYWYQQKPGSSPRLLIYDTSNLASGVPVRFSGGGSGTSYSLTISRMEAEDAATYYCQQWSSYPPTFGAGTKLELK
19 | 0.001 nM | 5D1 (antibody) heavy chain variable region: QVQLQQPGAELVKPGASVKMSCKASGYTFTSSWITWVKDRPGQGLEWIGDIYPGNGNTNYNEKFKSKATLTVDTSSNTVYMQLSSLTSEDSAVHYCARDGRGYFDYWGPGTTLTVSS light chain variable region: DIQMTQTTSSLSASLGDRVTIICRASQDISNFLNWYQQKPDGTVKLLMYDTSILQSGVPSRFSGRGSGADYSLTINNLEQEDLATYFCQQGKTLPYTFGGGTKLEIK
20 | 0.26 nM | anti-Siglec-7 antibody 4B12 (antibody, V domains shown, Used as an AF647 conjugate for detection in the internalization assay; also called 4B12-AF647) VH: EVQLQQSGPELVKPGASVKIPCKASGYTFTDYNMDWVKQSHEKSLEWIGDIDPHNGVTLYNQKFKDKATLTIDKSSNTAYMELRSLTSEDSAVYYCALTGSTYWGQGTLVTVSA VL: DIVMTQSQKFMSTSVGDRVSVTCKASQNVGTNVAWYQQKPGQSPKAVIYSASYRNSGVPDRFTGSGSGTDFTLTISNVQSEDLTEYFCQQYNNYPYTFGGGTKLEIK
